# From publication doi:10.1101/2024.06.05.597643, “Identification and characterization of a human MORC2 DNA binding region that is required for gene silencing” (bioRxiv, 2024)
# T1: MORC2 wild type, dephosphorylated (Homo sapiens) (UniProt Q9Y6X9)
# T1 sequence: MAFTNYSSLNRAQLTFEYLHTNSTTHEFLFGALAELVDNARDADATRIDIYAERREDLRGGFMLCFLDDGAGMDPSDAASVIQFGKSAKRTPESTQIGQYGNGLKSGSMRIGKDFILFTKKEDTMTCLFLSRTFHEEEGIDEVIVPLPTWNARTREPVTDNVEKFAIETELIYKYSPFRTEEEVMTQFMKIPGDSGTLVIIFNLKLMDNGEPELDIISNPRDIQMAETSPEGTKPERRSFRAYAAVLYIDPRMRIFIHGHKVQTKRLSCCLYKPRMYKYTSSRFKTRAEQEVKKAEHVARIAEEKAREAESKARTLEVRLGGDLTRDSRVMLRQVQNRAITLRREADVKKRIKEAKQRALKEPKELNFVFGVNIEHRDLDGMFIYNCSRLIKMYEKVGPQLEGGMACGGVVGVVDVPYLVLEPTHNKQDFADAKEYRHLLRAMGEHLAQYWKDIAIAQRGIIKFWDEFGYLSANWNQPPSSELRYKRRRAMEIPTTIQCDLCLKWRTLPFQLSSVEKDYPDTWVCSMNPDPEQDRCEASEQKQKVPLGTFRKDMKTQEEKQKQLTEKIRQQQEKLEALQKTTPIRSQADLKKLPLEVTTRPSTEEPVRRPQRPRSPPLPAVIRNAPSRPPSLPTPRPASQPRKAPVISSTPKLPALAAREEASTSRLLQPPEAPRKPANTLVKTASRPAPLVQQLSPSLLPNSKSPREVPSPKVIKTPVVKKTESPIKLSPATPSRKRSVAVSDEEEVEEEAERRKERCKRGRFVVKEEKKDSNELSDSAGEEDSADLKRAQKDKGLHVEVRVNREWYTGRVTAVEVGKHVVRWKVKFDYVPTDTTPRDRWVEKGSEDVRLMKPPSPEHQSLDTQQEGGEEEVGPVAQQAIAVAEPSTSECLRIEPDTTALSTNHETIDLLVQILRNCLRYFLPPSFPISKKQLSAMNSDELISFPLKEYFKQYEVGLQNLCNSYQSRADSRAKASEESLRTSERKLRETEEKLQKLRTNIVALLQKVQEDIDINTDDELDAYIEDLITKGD
# Key:
# [1] = target: T1, MORC2 wild type, dephosphorylated (Homo sapiens); assay: fluorescence anisotropy; details: FA: 50 mM NaCl, 3 mM MgCl2, 20 mM Na-HEPES pH 7.4, 1 mM TCEP, 10% glycerol, 0.025 mM ZnCl2, 50 ug/ml BSA, 1 nM nucleic acid, room temperature
# [2] = target: the molecule itself; assay: SEC-MALS; coiled coil 3 1.5 mg/mL, 150 mM NaCl, 3 mM MgCl2, 20 mM Na-HEPES pH 7.4, 0.5 mM TCEP, 1.5% glycerol, 0.025 mM ZnCl2; Wyatt 010 column
# [3] = target: the molecule itself; assay: SEC-MALS; full-length MORC2 2 mg/mL, 150 mM NaCl, 3 mM MgCl2, 20 mM Na-HEPES pH 7.4, 0.5 mM TCEP, 1.5% glycerol, 0.025 mM ZnCl2, without AMP-PNP; Wyatt 030 column
molecule,measurement,setting,value
ATATCGATGTATATATCTGACACGTGCCTGGAGACTAGGGAGTAATCCCCTTGGCGGTTAAAACGCGGGGGACAGCGCGTACGTGCGTTTAAGCGGTGCTAGAGCTGTCTACGACCAATTGAGCGGCCTCGGCACCGGGATTCTGATAT (double strand) [Nucleosome on 2-601-2 DNA],Kd,[1],16 nM
"MORC2 coiled coil 3 (domain or fragment, human, UniProt Q9Y6X9 900-1032, looked up, also called CC3; source: E. coli BL21 (DE3) RIL, purified (HisTrap, TEV cleavage, S75 SEC); not shown: His6, N-terminal, cleaved) ALSTNHETIDLLVQILRNCLRYFLPPSFPISKKQLSAMNSDELISFPLKEYFKQYEVGLQNLCNSYQSRADSRAKASEESLRTSERKLRETEEKLQKLRTNIVALLQKVQEDIDINTDDELDAYIEDLITKGD",stoichiometry N,[2],2
"full-length human MORC2 (natural protein, UniProt Q9Y6X9 1-1032, looked up, Cloned into both 438-B (N-terminal His6-TEV) and 438-C (N-terminal His6-MBP-TEV); the tag was removed with TEV protease; also called wildtype MORC2; dephosphorylated MORC2; not shown: His6, N-terminal, cleaved) MAFTNYSSLNRAQLTFEYLHTNSTTHEFLFGALAELVDNARDADATRIDIYAERREDLRGGFMLCFLDDGAGMDPSDAASVIQFGKSAKRTPESTQIGQYGNGLKSGSMRIGKDFILFTKKEDTMTCLFLSRTFHEEEGIDEVIVPLPTWNARTREPVTDNVEKFAIETELIYKYSPFRTEEEVMTQFMKIPGDSGTLVIIFNLKLMDNGEPELDIISNPRDIQMAETSPEGTKPERRSFRAYAAVLYIDPRMRIFIHGHKVQTKRLSCCLYKPRMYKYTSSRFKTRAEQEVKKAEHVARIAEEKAREAESKARTLEVRLGGDLTRDSRVMLRQVQNRAITLRREADVKKRIKEAKQRALKEPKELNFVFGVNIEHRDLDGMFIYNCSRLIKMYEKVGPQLEGGMACGGVVGVVDVPYLVLEPTHNKQDFADAKEYRHLLRAMGEHLAQYWKDIAIAQRGIIKFWDEFGYLSANWNQPPSSELRYKRRRAMEIPTTIQCDLCLKWRTLPFQLSSVEKDYPDTWVCSMNPDPEQDRCEASEQKQKVPLGTFRKDMKTQEEKQKQLTEKIRQQQEKLEALQKTTPIRSQADLKKLPLEVTTRPSTEEPVRRPQRPRSPPLPAVIRNAPSRPPSLPTPRPASQPRKAPVISSTPKLPALAAREEASTSRLLQPPEAPRKPANTLVKTASRPAPLVQQLSPSLLPNSKSPREVPSPKVIKTPVVKKTESPIKLSPATPSRKRSVAVSDEEEVEEEAERRKERCKRGRFVVKEEKKDSNELSDSAGEEDSADLKRAQKDKGLHVEVRVNREWYTGRVTAVEVGKHVVRWKVKFDYVPTDTTPRDRWVEKGSEDVRLMKPPSPEHQSLDTQQEGGEEEVGPVAQQAIAVAEPSTSECLRIEPDTTALSTNHETIDLLVQILRNCLRYFLPPSFPISKKQLSAMNSDELISFPLKEYFKQYEVGLQNLCNSYQSRADSRAKASEESLRTSERKLRETEEKLQKLRTNIVALLQKVQEDIDINTDDELDAYIEDLITKGD",stoichiometry N,[3],2
